Measured values published in patent publication US20220143136A1, “USE OF ANNEXINS IN PREVENTING AND TREATING MUSCLE MEMBRANE INJURY” (NORTHWESTERN UNIVERSITY, priority 2018, published 2022).

How the values were obtained:
[1] = system: Duchenne muscular dystrophy boys; conditions: orally, 100 mg/kg; cited from earlier work
Anxa6^em1(GFP) mice = assay: Prednisone injection, annexin A6GFP repair cap after laser injury of isolated myofibers; type: in vivo, mouse; conditions: 1 mg/kg intraperitoneal, myofibers isolated 24 hours post injection; vs DMSO control
Description: Multiphoton laser injury and imaging. Isolated fibers were subjected to laser-induced damage at room temperature using the Nikon A1R-MP multiphoton microscope. Imaging was performed using a 25×1.1 NA objective directed by the NIS-Elements AR imaging software. Green fluorescence protein (GFP) and FM 4-64 were excited using a 920 nm wavelength laser and emission wavelengths of […] and 629 nm were collected respectively. To induce laser damage on isolated myofibers, a diffraction limited spot (diameter approximately 410 nm) was created on the lateral membrane of the myofiber using a 920 nm wavelength laser at 10-15% laser power for 1 second. Time lapse images were collected as follows: one image was collected prior to damage, one image upon damage, then every 8 s for 80 s (10 images) followed by every 30 seconds for 5 min (10 images). At the end of the time lapsed image series, z-stack images were collected at 250 nm intervals through the damaged site on the myofiber directed by the NIS-Elements AR imaging software. Fluorescence intensity and cap area were measured using Fiji (NIH).
For prednisone studies, prednisone (catalog P6254) was resuspended in DMSO (catalog D2650, Sigma-Aldrich) at 5 mg/ml. Dosing was based on pretreatment weights (1 mg/kg body weight) in 30 μl total PBS. Mice were injected at 7 am on the day prior to imaging. […]

[2] = system: rat model of myocardial ischemia-reperfusion-induced injury; conditions: La et al., FASEB J. 2001; cited from earlier work
myofibers = assay: Annexin repair cap formation after laser injury at multiple Ca2+ concentrations; type: cell-based, mouse
Description: (§1) Electroporation, myofiber isolation, laser injury, cap and vesicle measurement. Flexor digitorum brevis (FDB) fibers were transfected with endo-free plasmid DNA by in vivo electroporation. Methods were described previously in (Demonbreun and McNally, 2015; Demonbreun et al., 2016b; DiFranco et al., 2009). Z-stack projections were acquired from consecutive acquisitions after the final time-lapse frame, approximately 4 minutes post damage, with a […] step size between slices. Z-stack renderings were constructed in FIJI. Measurement of the cap area and feret diameter were conducted from a single slice near the middle of the z-stack using FIJI imaging tools. Fibers expressing similar levels of tagged or GCaMP5G protein were compared. GCaMP5G Ca^2+ fluorescence was measured from the acquired timelapse images, using a standard rectangular ROI, placed inside the myofiber below the site of damage using FIJI. Fluorescence was expressed as F/F0. External vesicle number and GCaMP5G area were measured from endpoint z-stacks and max projection images using FIJI. Vesicles were considered external if they were found outside the sarcolemma assessed in brightfield and fluorescent channels. All measurements were acquired from myofibers isolated from at least n≥3 mice, n≥3 myofibers per mouse.
Calcium kinetics. FDB muscle was electroporated and isolated as described above. Myofibers were damaged in Ringers solution with Ca^2+ concentrations of 2 mM, 1 mM, 0.5 mM, 0.25 mM, 0.175 mM, 0.1 mM, 0.050 mM, and 0 mM. EDTA was added as a Ca^2+ chelating agent in only in the 0 mM Ca^2+ Ringers. Myofibers were isolated directly into 2 mM, 1 mM and 0.5 mM Ringers for those experiments respectively. For experiments using less than 0.5 mM Ca^2+ myofibers were isolated in 0.5 mM Ca^2+ Ringers and then diluted with 0 mM EDTA-free Ca^2+ Ringers. For 0 mM experiments, myofibers were isolated in 0.5 mM Ca^2+ Ringers and then replaced with 0 mM Ca^2++EDTA Ringers just prior to imaging. Co-electroporation of wildtype annexin+wildtype annexin constructs was performed in one mouse foot, while the contralateral foot was co-electroporated with wildtype annexin+mutant annexin. All measurements were acquired from myofibers isolated from at least n≥2 mice, n≥3 myofibers per mouse at each Ca^2+ concentration. Area-Ca^2+ curves were fitted with a Hill Curve at Ca^2+ concentrations ranging from 0-2 mM. Kinetic parameters were calculated using Prism Graphpad.
as §1, with “(Demonbreun A R, Quattrocelli M, Barefield D Y, Allen M V, Swanson K E,” for “(Demonbreun”, “McNally E M. An actin-dependent annexin complex mediates plasma membrane repair in muscle. The Journal of cell biology. 2016; 213(6):705-18; Demonbreun A R, and McNally E M. DNA Electroporation, Isolation and Imaging of Myofibers. Journal of visualized experiments: JoVE.” for “McNally,”, “106(106):e53551;” for “Demonbreun et al., 2016b;”, “M, Quinonez M, Capote J, and Vergara J. DNA transfection of mammalian skeletal muscles using in vivo electroporation. Journal of visualized experiments: JoVE. 2009; 32(32)).” for “et al., 2009).”, “Vesicles were considered external if they were found outside the sarcolemma assessed in brightfield and fluorescent channels. All measurements were acquired from myofibers isolated from at least n≥3 mice, n≥3 myofibers per mouse.” left out

wildtype myofibers [3] = assay: Laser-induced membrane injury, FM 4-64 dye uptake; type: cell-based, mouse; conditions: mutant A6E233A-GFP vs wildtype annexin A6-GFP expressing myofibers
wildtype myofibers [4] = assay: Laser injury FM 4-64 uptake, E coli versus HEK cell produced rANXA6; type: cell-based, mouse; conditions: 13 μg/ml and 130 μg/ml; for FM 4-64 dye uptake after laser injury: vs BSA control
Description: Myofiber isolation, laser injury, and dye measurement. For recombinant myofibers studies, myofibers were isolated from wildtype mice. Myofibers were incubated in Ringer's media with 13 μg/ml or 130 μg/ml human recombinant annexin, E coli or HEK cell produced. Bovine serum albumin (BSA) was used as a negative control. FM 4-64 ([…]) was added to the myofibers just prior to imaging. Fibers were subjected to laser-induced damage at room temperature using the Nikon A1R-MP multiphoton microscope. Imaging was performed using a 25×1.1 NA objective directed by the NIS-Elements AR imaging software. FM 4-64 was excited using a 920 nm wavelength laser and emission wavelengths of 575 nm and 629 nm were collected, respectively. To induce laser damage on isolated myofibers, a diffraction limited spot (diameter approximately 410 nm) was created on the lateral membrane of the myofiber using a 920 nm wavelength laser at 10-15% laser power for 1 second. FM 4-64 area was measured using FIJI from a single slice near the middle of the z-stack. Myofiber quality control was based on a number of characteristics including using adherent myofibers with intact sarcomere structure. Myofibers appeared devoid of tears or ruptures induced during the isolation protocol. The region of the myofiber selected for damage was linear and not located on a nucleus or neuromuscular junction.
Statistical analyses were performed with Prism (Graphpad, La Jolla, Calif.). Comparisons relied on ANOVA (1way ANOVA for 1 variable). P-values of less than or equal to 0.05 were considered significant. Error bars represent +/−standard error of the mean (SEM).

CC/C=C\C/C=C\C/C=C\C/C=C\C/C=C\C/C=C\CCC(=O)NCCNC(=O)c1ccccc1O [Edasalonexent]
muscle disease progression [1]: delayed muscle disease progression

C[C@]12C=CC(=O)C=C1CC[C@@H]1[C@@H]2C(=O)C[C@@]2(C)[C@H]1CC[C@]2(O)C(=O)CO [prednisone]
annexin A6GFP repair cap size (Anxa6^em1(GFP) mice): reduced

AC2-26: N-terminal annexin A1 peptide (AMVSEFLKQAWFIENEEQEYVQTVK; UniProt P04083 2-26, looked up, fragment) [reference compound]
cardioprotection [2]: cardioprotective response

B1: annexin A6E233A: Ca2+-binding mutant of annexin A6 (E233A), plasmid expressed, dominant negative (protein, UniProt P14824 2-673, looked up, variant E233A)
Annexin A6: AKIAQGAMYRGSVHDFPEFDANQDAEALYTAMKGFGSDKESILELITSRSNKQRQEICQNYKSLYGKDLIEDLKYELTGKFERLIVNLMRPLAYCDAKEIKDAISGVGTDEKCLIEILASRTNEQMHQLVAAYKDAYERDLESDIIGDTSGHFQKMLVVLLQGTRENDDVVSEDLVQQDVQDLYEAGELKWGTDEAQFIYILGNRSKQHLRLVFDEYLKTTGKPIEASIRGALSGDFEKLMLAVVKCIRSTPEYFAERLFKAMKGLGTRDNTLIRIMVSRSELDMLDIREIFRTKYEKSLYSMIKNDTSGEYKKALLKLCGGDDDAAGQFFPEAAQVAYQMWELSAVSRVELKGTVCAANDFNPDADAKALRKAMKGIGTDEATIIDIVTHRSNAQRQQIRQTFKSHFGRDLMADLKSEISGDLARLILGLMMPPAHYDAKQLKKAMEGAGTDEKTLIEILATRTNAEIRAINEAYKEDYHKSLEDALSSDTSGHFRRILISLATGNREEGGENRDQAQEDAQVAAEILEIADTPSGDKTSLETRFMTVLCTRSYPHLRRVFQEFIKKTNYDIEHVIKKEMSGDVKDAFVAIVQSVKNKPLFFADKLYKSMKGAGTDEKTLTRVMVSRSEIDLLNIRREFIEKYDKSLHQAIEGDTSGDFMKALLALCGGED
modifications: GFP tag
annexin A1, A2 and A6 cap size with co-expressed mutant annexin A6 (myofibers; compared to A1+A6, A2+A6, A6+A6 controls (heterotypic)): significant reduction | repair cap diameter (DMAX) / cap size of the co-expressed wildtype annexin of the same type (myofibers; wildtype+mutant vs wildtype+wildtype co-electroporation (homotypic)): significantly reduced | FM 4-64 fluorescence area after laser injury (wildtype myofibers [3]): increased

B2: recombinant annexin A1: recombinant annexin A1 protein (literature) (protein, UniProt P04083 2-346, looked up)
Annexin A1: AMVSEFLKQAWFIENEEQEYVQTVKSSKGGPGSAVSPYPTFNPSSDVAALHKAIMVKGVDEATIIDILTKRNNAQRQQIKAAYLQETGKPLDETLKKALTGHLEEVVLALLKTPAQFDADELRAAMKGLGTDEDTLIEILASRTNKEIRDINRVYREELKRDLAKDITSDTSGDFRNALLSLAKGDRSEDFGVNEDLADSDARALYEAGERRKGTDVNVFNTILTTRSYPQLRRVFQKYTKYSKHDMNKVLDLELKGDIEKCLTAIVKCATSKPAFFAEKLHQAMKGVGTRHKALIRIMVSRSEIDMNDIKAFYQKMYGISLCQAILDETKGDYEKILVALCGGN
cardioprotection [2]: cardioprotective response

B3: E coli produced rANXA6: human recombinant annexin A6 produced in E coli, from R&D Systems or CRO Evotec SE (protein, UniProt P08133 2-673, looked up)
Annexin A6: AKPAQGAKYRGSIHDFPGFDPNQDAEALYTAMKGFGSDKEAILDIITSRSNRQRQEVCQSYKSLYGKDLIADLKYELTGKFERLIVGLMRPPAYCDAKEIKDAISGIGTDEKCLIEILASRTNEQMHQLVAAYKDAYERDLEADIIGDTSGHFQKMLVVLLQGTREEDDVVSEDLVQQDVQDLYEAGELKWGTDEAQFIYILGNRSKQHLRLVFDEYLKTTGKPIEASIRGELSGDFEKLMLAVVKCIRSTPEYFAERLFKAMKGLGTRDNTLIRIMVSRSELDMLDIREIFRTKYEKSLYSMIKNDTSGEYKKTLLKLSGGDDDAAGQFFPEAAQVAYQMWELSAVARVELKGTVRPANDFNPDADAKALRKAMKGLGTDEDTIIDIITHRSNVQRQQIRQTFKSHFGRDLMTDLKSEISGDLARLILGLMMPPAHYDAKQLKKAMEGAGTDEKALIEILATRTNAEIRAINEAYKEDYHKSLEDALSSDTSGHFRRILISLATGHREEGGENLDQAREDAQVAAEILEIADTPSGDKTSLETRFMTILCTRSYPHLRRVFQEFIKMTNYDVEHTIKKEMSGDVRDAFVAIVQSVKNKPLFFADKLYKSMKGAGTDEKTLTRIMVSRSEIDLLNIRREFIEKYDKSLHQAIEGDTSGDFLKALLALCGGED
modifications: E. coli produced
notes: human recombinant annexin A6 produced in E coli, from R&D Systems or CRO Evotec SE
effect on membrane repair, E coli produced compared to mammalian cell produced protein (wildtype myofibers [4]): not significantly different | effect on membrane repair, E coli produced compared to mammalian cell produced protein (wildtype myofibers [4]; listed as annexin A6 protein produced in prokaryotic cells): performed as well as | FM 4-64 dye uptake after laser injury (wildtype myofibers [4]): significantly less

B4: mammalian HEK cell produced rANXA6: human recombinant annexin A6 produced in mammalian HEK cells (protein, UniProt P08133 2-673, looked up)
Annexin A6: B3 Annexin A6
FM 4-64 dye uptake after laser injury (wildtype myofibers [4]): significantly less
